Reference: patent US20070037861A1, “Enhanced method of treatment of growth disorders” (PFIZER HEALTH AB, priority 2003, published 2007)
Like-named read-outs stand apart in the source and are kept apart here.

Assays:
[1] = target: T1, GH receptors (Rattus norvegicus, UniProt P16310); details: cited from earlier work
T1 construct: host or cells: rat hepatocytes
T1 sequence (P16310 19-638): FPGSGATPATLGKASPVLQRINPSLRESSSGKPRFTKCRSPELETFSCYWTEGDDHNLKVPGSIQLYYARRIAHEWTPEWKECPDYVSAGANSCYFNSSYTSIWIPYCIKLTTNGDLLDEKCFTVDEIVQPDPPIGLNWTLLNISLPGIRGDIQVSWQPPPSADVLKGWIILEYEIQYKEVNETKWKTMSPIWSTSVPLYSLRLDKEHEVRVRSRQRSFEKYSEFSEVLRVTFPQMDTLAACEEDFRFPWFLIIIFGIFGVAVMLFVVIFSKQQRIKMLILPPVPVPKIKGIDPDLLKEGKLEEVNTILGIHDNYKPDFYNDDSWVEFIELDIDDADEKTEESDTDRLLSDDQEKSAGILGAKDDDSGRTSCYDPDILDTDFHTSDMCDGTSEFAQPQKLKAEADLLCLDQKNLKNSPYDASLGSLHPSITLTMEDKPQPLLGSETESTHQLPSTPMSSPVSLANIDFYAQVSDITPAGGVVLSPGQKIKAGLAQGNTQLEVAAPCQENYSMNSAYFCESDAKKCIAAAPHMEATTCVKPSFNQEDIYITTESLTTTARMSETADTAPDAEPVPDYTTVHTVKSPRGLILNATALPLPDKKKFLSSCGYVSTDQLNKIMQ

[2] = target: T2, rat prolactin receptor (Rattus norvegicus, UniProt P05710); details: cited from earlier work
T2 construct: host or cells: rat hepatocytes
T2 sequence (P05710 20-310 isoform P05710-3 limits assumed): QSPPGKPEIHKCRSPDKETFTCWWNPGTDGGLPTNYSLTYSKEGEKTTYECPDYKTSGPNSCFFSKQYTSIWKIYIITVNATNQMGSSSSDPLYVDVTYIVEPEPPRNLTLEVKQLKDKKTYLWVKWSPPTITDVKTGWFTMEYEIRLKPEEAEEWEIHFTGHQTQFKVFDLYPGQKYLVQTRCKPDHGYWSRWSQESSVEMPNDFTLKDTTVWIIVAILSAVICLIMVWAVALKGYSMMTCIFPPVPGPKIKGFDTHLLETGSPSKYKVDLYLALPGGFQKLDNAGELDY

[3] = animal model; without adverse effects on body weight and adipose tissue mass; cited from earlier work
[4] = by inhibition of lipolysis; cited from earlier work
[5] = overnight administration; lean and obese nondiabetic subjects, impaired glucose tolerance or type 2 diabetes; cited from earlier work
[6] = Tissue studies: organ and fat depot weights at termination; assay type: in vivo, Wistar rats
Protocol: At termination animals were sacrificed by decapitation under halothane anaesthesia. Tissues (heart, liver, muscle and adipose (subcutaneous and visceral)) were collected, weighed and snap frozen in liquid nitrogen for subsequent analysis. An aliquot of liver tissue was also frozen at −20° C. for examining the growth hormone receptor using ligand-binding analysis.

[7] = Body lengths (nose-anus) post-mortem and BMI; assay type: in vivo, Wistar rats
Protocol: (§1) Body lengths (nose-anus and nose-tail) and bone length (tibial, femoral length) was assessed post-mortem using peripheral quantitative computed tomography (PQCT, Stratec) analysis. Bone density was also assessed via pQCT.
A BMI was calculated using: body weight/nose-anus length (cm)2. […] Due to the lack of lipolysis in the GH and acipimox treated animals compared to GH treated, alterations in BMI probably reflect an enhancement of liner growth above that of GH alone.

[8] = test system: plasma IGF-I; experiment: Plasma IGF-I by RIA; assay type: in vivo, Wistar rats; details: compared to saline controls; AD and SGA animals; at time of sacrifice
Protocol: (§2) Blood samples were collected following overnight fast. Samples were collected from the tail vein and at termination following decapitation under halothane anaesthetic. Blood samples were collected into heparinised tubes and centrifuged for harvesting of plasma. Blood samples were then analysed for insulin, glucose, FFAs, leptin, IGF-I, glycerol, triglycerides, cholesterol, corticosterone, markers of hepatic function (ALT, AST, ALP), and for markers of protein synthesis.
(§3) Plasma FFAs, triglycerides and glycerol were measured by diagnostic kit (Boehringer-Mannheim #1383175 and Sigma #337 respectively). Plasma leptin, insulin were measured using commercially available kits (inco, St Charles, Mo., US). Plasma IGF-I was measured by RIA as described previously (Vickers et al., 2000). Plasma glucose concentrations were measured using a colorimetric plate assay. All other plasma analytes (liver enzymes, electrolytes, etc.) were measured by a BM/Hitachi 737 analyser by Agriquality Laboratory Services (Auckland, New Zealand).

[9] = Tibial bone length, area and density by pQCT post-mortem; assay type: in vivo, Wistar rats; details: for Fisher's PLSD for TRABECULAR, Mean Diff.: effect: treatment, significance level 5%
Protocol: as §1
Tibias were stored in 10% neutral buffered formalin. Tissue was stripped from the bone and bone length, area and density (cortical and trabecular) was assessed using pQCT (Stratec). […] Tibial length was highly correlated with total body (nose-anus) length (FIG. 5).

[10] = test system: plasma triglycerides; experiment: Plasma triglycerides; assay type: in vivo, Wistar rats; details: compared to saline controls
Protocol: as §2, §3

[11] = test system: plasma glucose; experiment: Fasting plasma glucose; assay type: in vivo, Wistar rats; details: compared to controls
Protocol: as §2, §3

[12] = Systolic blood pressure by tail cuff plethysmography; assay type: in vivo, Wistar rats; details: SGA offspring
Protocol: Systolic and diastolic blood pressure and heart rate were recorded by tail cuff plethysmography according to the manufacturer's instructions (Blood pressure analyser IITC, Life Science, Woodland Hills, Calif., USA). Rats were restrained in a clear plastic tube in a heated room (25-28° C.). After 10-15 minutes acclimatisation the cuff was placed on the tail and inflated to 240 mmHg. Pulses were recorded during deflation at a rate of 3 mmHg/sec and reappearance of a pulse was used to determine systolic blood pressure. A minimum of 3 clear systolic blood pressure recordings were taken per animal. Previous observations indicate that the coefficient of variation for repeated measurements is <5%.

[13] = Blood hematocrit (marker of plasma volume / fluid retention); assay type: in vivo, Wistar rats; details: compared to saline; AD and SGA groups
Excerpt: A well-characterised effect of GH treatment is increased plasma volume (Johannsson et al, 2002). Decrease in blood hematocrit is a reliable marker of increase in plasma volume associated with fluid retentive effects of GH therapy.

[14] = test system: plasma leptin; experiment: Plasma leptin; assay type: in vivo, Wistar rats; details: compared to saline animals and animals that received GH and fibrate
Protocol: as §2, §3

Molecule: hGH: human growth hormone, lactogenic and somatogenic in the rat
- binding to GH receptors (somatogenic binding sites) [1]: binding to both prolactin receptors and GH receptors
- binding to prolactin receptor (lactogenic binding sites) [2]: binding to both prolactin receptors and GH receptors

Molecule: CC(C)(Oc1ccc(C2CC2(Cl)Cl)cc1)C(=O)O (stereo not shown) [ciprofibrate]
- insulin resistance [3]: reduce insulin resistance

Molecule: Cc1cnc(C(=O)O)c[n+]1[O-] [acipimox, 5-methylpyrazinecarboxylic acid 4-oxide]
- GH induced insulin resistance [4]: partially prevent
- insulin resistance [5]: reduce insulin resistance
- plasma FFA levels [5]: lower plasma FFA levels

Molecule: CCCCCCCN(CCc1ccc(SC(C)(C)C(=O)O)cc1)C(=O)Nc1ccc(F)cc1F [GW9578]
- insulin resistance [3]: reduce insulin resistance

B1: GH: Recombinant bovine growth hormone, a pure somatogen in the rat, given subcutaneously at 5 mg/kg/day (protein, UniProt P01246 27-217, looked up)
Somatotropin: AFPAMSLSGLFANAVLRAQHLHQLAADTFKEFERTYIPEGQRYSIQNTQVAFCFSETIPAPTGKNEAQQKSDLELLRISLLLIQSWLGPLQFLSRVFTNSLVFGTSDRVYEKLKDLEEGILALMRELEDGTPRAGQILKQTYDKFDTNMRSDDALLKNYGLLSCFRKDLHKTETYLRVMKCRRFGEASCAF
- Relative kidney weight ([6]; compared to saline controls): reduced
- retroperitoneal fat mass ([6]; compared to saline controls): significantly reduced
- Relative liver weight ([6]; relative to body weight, AD and SGA animals): no effect
- BMI ([7]; compared to saline): not significantly different
- Nose anus lengths ([7]; post-mortem, effect of treatment): significantly increased
- binding to prolactin receptor (lactogenic binding sites) [2]: not a ligand
- Plasma IGF-I [8]: significantly increased
- Total bone density ([9]; pQCT): trend (p=0.056) towards to drop
- trabecular bone mass ([9]; pQCT, AD and SGA animals): significantly reduced
- Tibial length ([9]; pQCT, effect of treatment, AD and SGA): significantly increased
- Fisher's PLSD for TRABECULAR, Mean Diff. ([9]; versus GH/ACIP): −4.381
- Fisher's PLSD for TRABECULAR, Mean Diff. ([9]; versus GH/FIB): −10.613
- Fisher's PLSD for TRABECULAR, Mean Diff. ([9]; versus SALINE): −14.137
- Plasma triglycerides [10]: no significant effect
- Fasting plasma glucose [11]: not significantly altered
- systolic blood pressure [12]: significantly reduced and normalised
- blood plasma hematocrit [13]: significantly reduced
- plasma leptin [14]: elevated
